Data on two substances can be found in patent US20240261333A1, “NOVEL TARGETS FOR ENHANCING ANTI-TUMOR IMMUNITY” (THE BROAD INSTITUTE, INC., priority 2021, published 2024).

One test deals with CALML5 (human) (UniProt Q9NZT1). Kind of test: control IP with IgG, lysate of cells with N-FLAG B3GNT2, mass spectrometry.
The next test deals with CCT3 (human) (UniProt P49368). The test is described as above.
In another test the target is EMILIN1 (human) (UniProt Q9Y6C2). Described as above.
For the next test, the target named is FLG (human) (UniProt P20930). Described as above.
The next test addresses IMMT (human) (UniProt Q16891). Described as above.
The next test addresses RACK1 (human) (UniProt P63244). The test is described as above.
The target in another test is RHOT2 (human) (UniProt Q8IXI1). Described as above.
The target in a further test is RPL7 (human) (UniProt P18124). The test is described as above.
Another test deals with RPS14 (human) (UniProt P62263). The test is described as above.
For a further test, the target named is RPS26 (human) (UniProt P62854). The test is described as above.
A further test concerns the target RPS27A (human) (UniProt P62979). The description is as above.
The target of a further test is SERPINB3 (human) (UniProt P29508). Described as above.
Another test concerns the target SYNCRIP (human) (UniProt O60506). The description is as above.
The next test deals with SYNM (human) (UniProt O15061). Described as above.
For another test, the target named is SYNPO (human) (UniProt Q8N3V7). The description is as above.
For a further test, the target named is TBL2 (human) (UniProt Q9Y4P3). Described as above.
The target of another test is TELO2 (human) (UniProt Q9Y4R8). The test is described as above.
The target in another test is T1, YTHDF2 (human) (UniProt Q9Y5A9).
T1 sequence (looked up): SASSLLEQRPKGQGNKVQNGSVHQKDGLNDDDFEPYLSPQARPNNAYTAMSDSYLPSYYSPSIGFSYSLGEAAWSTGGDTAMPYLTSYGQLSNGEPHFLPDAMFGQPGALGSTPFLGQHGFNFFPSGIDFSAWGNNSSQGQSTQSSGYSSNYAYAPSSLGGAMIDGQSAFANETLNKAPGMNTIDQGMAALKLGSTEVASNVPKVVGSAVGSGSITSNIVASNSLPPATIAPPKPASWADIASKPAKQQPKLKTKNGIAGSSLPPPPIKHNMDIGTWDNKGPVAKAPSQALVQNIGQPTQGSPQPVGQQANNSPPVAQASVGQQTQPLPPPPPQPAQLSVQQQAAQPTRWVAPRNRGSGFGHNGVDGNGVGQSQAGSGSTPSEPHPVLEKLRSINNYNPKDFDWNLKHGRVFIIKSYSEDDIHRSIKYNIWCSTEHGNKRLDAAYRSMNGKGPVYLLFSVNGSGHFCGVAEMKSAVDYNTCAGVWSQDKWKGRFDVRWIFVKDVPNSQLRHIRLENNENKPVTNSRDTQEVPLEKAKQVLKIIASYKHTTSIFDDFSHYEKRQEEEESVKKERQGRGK
Described as above.

Another test addresses ACSL3 (human) (UniProt O95573). Put plainly: anti-FLAG co-IP from lysate of N-FLAG B3GNT2 cells, mass spectrometry.
For a further test, the target named is AIFM1 (human) (UniProt O95831). The test is described as above.
Another test deals with EEF2 (human) (UniProt P13639). The test is described as above.
The target in another test is ERP29 (human) (UniProt P30040). The description is as above.
A further test concerns the target HSP90AB1 (human) (UniProt P08238). Described as above.
The target in another test is LARP4 (human) (UniProt Q71RC2). The test is described as above.
A further test addresses LDHA (human) (UniProt P00338). The description is as above.
Another test addresses PSMB6 (human) (UniProt P28072). The description is as above.
The next test concerns the target PXN (human) (UniProt P49023). The description is as above.
The next test concerns the target RPL15 (human) (UniProt P61313). The description is as above.
A further test deals with RPS6 (human) (UniProt P62753). The test is described as above.
A further test deals with RRBP1 (human) (UniProt Q9P2E9). The test is described as above.
Another test addresses STAU1 (human) (UniProt O95793). The test is described as above.
Another test has as its target TUBA1C (human) (UniProt Q9BQE3). The description is as above.

IMMT (human), sequence (Q16891 other isoform, or with tags, fused parts or gaps limits assumed): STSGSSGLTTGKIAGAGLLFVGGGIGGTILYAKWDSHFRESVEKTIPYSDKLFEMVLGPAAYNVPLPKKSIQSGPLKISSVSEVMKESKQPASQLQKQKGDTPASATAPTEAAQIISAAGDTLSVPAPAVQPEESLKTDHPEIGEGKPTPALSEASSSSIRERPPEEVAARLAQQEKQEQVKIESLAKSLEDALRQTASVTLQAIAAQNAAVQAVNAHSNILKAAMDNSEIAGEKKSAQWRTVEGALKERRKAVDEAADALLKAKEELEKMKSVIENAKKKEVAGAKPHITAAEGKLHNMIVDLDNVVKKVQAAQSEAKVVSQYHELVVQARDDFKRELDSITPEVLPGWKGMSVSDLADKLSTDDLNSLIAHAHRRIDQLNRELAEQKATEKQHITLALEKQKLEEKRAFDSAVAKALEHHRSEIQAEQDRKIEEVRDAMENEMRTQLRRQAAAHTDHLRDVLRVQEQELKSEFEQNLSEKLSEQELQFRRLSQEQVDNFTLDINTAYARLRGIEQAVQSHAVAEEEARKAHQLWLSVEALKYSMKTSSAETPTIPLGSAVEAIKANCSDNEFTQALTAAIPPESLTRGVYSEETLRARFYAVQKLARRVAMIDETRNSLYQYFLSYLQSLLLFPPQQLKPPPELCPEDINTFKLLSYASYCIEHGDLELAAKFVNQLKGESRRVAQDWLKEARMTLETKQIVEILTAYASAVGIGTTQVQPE
CCT3 (human), sequence (P49368 whole entry): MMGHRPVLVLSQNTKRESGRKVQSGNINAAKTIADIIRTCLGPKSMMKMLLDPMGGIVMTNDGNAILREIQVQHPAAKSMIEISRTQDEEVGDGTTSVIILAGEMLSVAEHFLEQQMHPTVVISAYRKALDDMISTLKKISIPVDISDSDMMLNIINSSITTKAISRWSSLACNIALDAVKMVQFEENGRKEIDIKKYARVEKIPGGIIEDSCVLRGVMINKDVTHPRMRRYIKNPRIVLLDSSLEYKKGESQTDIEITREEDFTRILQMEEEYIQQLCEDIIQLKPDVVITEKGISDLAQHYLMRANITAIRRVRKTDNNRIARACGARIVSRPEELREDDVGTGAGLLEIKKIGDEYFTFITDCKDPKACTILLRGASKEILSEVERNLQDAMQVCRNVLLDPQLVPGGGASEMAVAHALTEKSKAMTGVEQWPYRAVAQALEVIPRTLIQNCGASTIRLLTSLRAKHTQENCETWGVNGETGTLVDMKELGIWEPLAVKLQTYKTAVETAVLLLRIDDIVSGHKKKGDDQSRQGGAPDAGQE
TELO2 (human), sequence (Q9Y4R8 whole entry): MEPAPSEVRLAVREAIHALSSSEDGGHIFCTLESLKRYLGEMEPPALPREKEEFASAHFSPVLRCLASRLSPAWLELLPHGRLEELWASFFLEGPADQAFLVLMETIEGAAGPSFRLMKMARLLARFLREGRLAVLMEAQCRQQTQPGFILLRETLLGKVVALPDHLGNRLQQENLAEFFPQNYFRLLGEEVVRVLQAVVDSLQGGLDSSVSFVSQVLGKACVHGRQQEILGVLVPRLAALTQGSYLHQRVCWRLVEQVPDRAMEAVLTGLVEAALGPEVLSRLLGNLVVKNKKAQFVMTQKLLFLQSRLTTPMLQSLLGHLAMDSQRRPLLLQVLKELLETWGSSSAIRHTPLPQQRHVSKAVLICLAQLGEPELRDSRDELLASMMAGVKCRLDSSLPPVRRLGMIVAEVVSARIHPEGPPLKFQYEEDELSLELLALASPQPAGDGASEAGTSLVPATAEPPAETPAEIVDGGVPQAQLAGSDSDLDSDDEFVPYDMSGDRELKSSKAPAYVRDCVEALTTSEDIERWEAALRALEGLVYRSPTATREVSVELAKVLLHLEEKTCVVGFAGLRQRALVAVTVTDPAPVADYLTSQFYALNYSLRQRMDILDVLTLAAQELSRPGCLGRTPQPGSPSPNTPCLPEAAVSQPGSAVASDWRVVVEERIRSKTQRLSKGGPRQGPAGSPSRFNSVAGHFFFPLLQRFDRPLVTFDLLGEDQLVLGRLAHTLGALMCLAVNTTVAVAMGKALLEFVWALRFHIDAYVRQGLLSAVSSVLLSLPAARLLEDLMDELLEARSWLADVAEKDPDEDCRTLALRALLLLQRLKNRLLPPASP
CALML5 (human), sequence (Q9NZT1 2-146 limits assumed): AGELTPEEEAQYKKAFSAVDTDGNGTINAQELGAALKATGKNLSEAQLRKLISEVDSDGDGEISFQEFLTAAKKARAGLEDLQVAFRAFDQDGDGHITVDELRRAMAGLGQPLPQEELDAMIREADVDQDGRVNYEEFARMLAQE
SYNCRIP (human), sequence (O60506 other isoform, or with tags, fused parts or gaps limits assumed): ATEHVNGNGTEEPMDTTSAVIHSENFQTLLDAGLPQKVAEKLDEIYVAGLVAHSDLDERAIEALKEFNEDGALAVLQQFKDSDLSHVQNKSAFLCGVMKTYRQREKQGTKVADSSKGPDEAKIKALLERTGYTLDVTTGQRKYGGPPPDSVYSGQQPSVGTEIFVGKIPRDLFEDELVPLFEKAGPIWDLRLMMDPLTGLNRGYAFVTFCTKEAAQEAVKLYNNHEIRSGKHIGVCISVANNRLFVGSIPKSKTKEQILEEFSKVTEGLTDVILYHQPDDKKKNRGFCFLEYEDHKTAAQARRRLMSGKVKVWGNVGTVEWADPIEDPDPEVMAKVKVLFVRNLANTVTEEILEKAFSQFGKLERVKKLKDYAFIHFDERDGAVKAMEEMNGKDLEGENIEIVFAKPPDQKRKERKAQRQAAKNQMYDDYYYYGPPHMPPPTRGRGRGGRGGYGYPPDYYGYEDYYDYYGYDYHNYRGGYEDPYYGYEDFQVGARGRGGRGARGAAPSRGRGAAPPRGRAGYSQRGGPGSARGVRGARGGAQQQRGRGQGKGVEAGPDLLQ
RHOT2 (human), sequence (Q8IXI1 whole entry): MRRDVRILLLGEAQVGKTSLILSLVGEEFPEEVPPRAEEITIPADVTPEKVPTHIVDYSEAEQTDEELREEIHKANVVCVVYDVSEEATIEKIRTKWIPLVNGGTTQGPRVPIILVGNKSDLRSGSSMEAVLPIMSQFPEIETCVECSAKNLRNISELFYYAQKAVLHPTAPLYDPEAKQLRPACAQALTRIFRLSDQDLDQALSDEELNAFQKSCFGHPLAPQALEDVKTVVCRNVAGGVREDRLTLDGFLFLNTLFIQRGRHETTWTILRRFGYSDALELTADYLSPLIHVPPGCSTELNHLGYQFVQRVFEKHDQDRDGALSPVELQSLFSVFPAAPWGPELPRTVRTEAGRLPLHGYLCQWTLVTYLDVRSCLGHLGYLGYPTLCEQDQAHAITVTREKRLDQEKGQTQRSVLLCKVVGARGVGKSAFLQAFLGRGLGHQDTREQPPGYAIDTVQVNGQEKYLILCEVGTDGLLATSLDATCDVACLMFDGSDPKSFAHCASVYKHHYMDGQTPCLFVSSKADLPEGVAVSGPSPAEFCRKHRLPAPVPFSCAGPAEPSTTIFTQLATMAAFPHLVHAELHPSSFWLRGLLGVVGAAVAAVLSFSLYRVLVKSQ
EMILIN1 (human), sequence (Q9Y6C2 22-1016 limits assumed): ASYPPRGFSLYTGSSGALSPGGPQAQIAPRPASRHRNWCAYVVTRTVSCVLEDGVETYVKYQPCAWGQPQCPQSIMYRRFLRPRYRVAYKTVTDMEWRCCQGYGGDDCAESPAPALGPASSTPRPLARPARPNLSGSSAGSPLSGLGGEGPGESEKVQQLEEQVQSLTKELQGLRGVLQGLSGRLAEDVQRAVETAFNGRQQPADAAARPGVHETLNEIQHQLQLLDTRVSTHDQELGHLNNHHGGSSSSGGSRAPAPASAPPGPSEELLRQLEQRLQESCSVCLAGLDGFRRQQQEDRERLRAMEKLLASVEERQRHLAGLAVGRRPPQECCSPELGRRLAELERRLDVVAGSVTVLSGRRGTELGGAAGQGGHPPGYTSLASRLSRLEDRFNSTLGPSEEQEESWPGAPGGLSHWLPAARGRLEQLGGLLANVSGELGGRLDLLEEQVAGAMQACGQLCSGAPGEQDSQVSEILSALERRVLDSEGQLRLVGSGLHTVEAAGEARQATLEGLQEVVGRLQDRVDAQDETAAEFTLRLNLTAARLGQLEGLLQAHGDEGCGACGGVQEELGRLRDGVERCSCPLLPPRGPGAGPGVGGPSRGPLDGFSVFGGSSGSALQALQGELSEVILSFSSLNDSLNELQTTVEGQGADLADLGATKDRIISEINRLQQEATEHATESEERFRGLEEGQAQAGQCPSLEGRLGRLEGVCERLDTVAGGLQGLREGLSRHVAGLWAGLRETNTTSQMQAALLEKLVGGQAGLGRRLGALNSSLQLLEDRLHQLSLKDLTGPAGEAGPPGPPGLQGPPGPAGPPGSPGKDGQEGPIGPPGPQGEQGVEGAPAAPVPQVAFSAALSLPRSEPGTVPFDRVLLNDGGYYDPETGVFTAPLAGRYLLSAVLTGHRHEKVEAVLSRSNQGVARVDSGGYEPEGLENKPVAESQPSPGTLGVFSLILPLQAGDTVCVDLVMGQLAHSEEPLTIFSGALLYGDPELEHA
PSMB6 (human), sequence (P28072 35-239 limits assumed): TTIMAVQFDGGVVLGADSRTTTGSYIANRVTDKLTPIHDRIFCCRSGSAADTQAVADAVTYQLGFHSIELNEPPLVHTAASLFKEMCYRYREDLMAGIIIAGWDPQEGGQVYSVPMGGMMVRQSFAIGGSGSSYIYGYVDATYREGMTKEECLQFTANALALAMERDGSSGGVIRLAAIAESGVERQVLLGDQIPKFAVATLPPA

As for “IgG control (Millipore Sigma 12-371) (antibody)”, the co-IP mass spectrometry count with CALML5 (human) came out at 0; in the test with CCT3 (human), 0; with EMILIN1 (human) it was 0; in the test with FLG (human), 20; with IMMT (human) it was 17; in the test with RACK1 (human), 0. The co-IP mass spectrometry count in the test with RHOT2 (human) was 0; in the test with RPL7 (human), 5; in the test with RPS14 (human) it was 9; in the test with RPS26 (human), 4; in the test with RPS27A (human), 11; in the test with SERPINB3 (human) it was 3. Also, the co-IP mass spectrometry count with SYNCRIP (human) is 6; with SYNM (human) it was 5; with SYNPO (human) it was 4; with TBL2 (human), 0; in the test with TELO2 (human), 0; in the test with YTHDF2 (human) it was 4.

For the substance “N-terminal FLAG tagged B3GNT2 (from UniProt Q9NY97 1-397) (enzyme)”, the co-IP mass spectrometry count turned out to be 5 with ACSL3 (human); 5 with AIFM1 (human); 3 with EEF2 (human); 2 with ERP29 (human); 10 with HSP90AB1 (human); 0 with LARP4 (human). The co-IP mass spectrometry count was 5 with LDHA (human); 5 with PSMB6 (human); 2 with PXN (human); 6 with RPL15 (human); 11 in the test with RPS6 (human); 2 with RRBP1 (human). Further, the co-IP mass spectrometry count in the test with STAU1 (human) was found to be 2; in the test with TUBA1C (human), 76.
